Read-outs that look alike come from different tables or passages of the source.
Tested on: peptide substrates
Assay type: biochemical

B1: VPr: Vibrio proteolyticus aminopeptidase (protein)
chain: MPPITQQATVTAWLPQVDASQITGTISSLESFTNRFYTTTSGAQASDWIASEWQALSASLPNASVKQVSHSGYNQKSVVMTITGSEAPDEWIVIGGHLDSTIGSHTNEQSVAPGADDDASGIAAVTEVIRVLSENNFQPKRSIAFMAYAAEEVGLRGSQDLANQYKSEGKNVVSALQLDMTNYKGSAQDVVFITDYTDSNFTQYLTQLMDEYLPSLTYGFDTCGYACSDHASWHNAGYPAAMPFESKFNDYNPRIHTTQDTLANSDPTGSHAKKFTQLGLAYAIEMGSATGDTPTPGNQ
Substrate AAMAAM{LYSN3}NH2 (SEQ ID NO: 74), 1 mM peptide, 2 mM enzyme, 2.5 mM ZnCl2, 25 mM Tris pH 8.0, 30° C./1 hr
  HPLC Assay Conv: 100%
Substrate AAPAAP{LYSN3}NH2 (SEQ ID NO: 98), 1 mM peptide, 2 mM enzyme, 2.5 mM ZnCl2, 25 mM Tris pH 8.0, 30° C./1 hr
  HPLC Assay Conv: 100%
Substrate AAPFQQ (SEQ ID NO: 118), 1 mM Peptide, 1 μM enzyme, 10 mM Mg(OAc)2, 50 mM MOPS pH 8, 60 mM KOAc, RT/0.5 hr
  HPLC Assay Conv: 100%
Substrate CCPFQQ (SEQ ID NO: 144), 1 mM Peptide, 1 μM enzyme, 10 mM Mg(OAc)2, 50 mM MOPS pH 8, 60 mM KOAc, RT/0.5 hr
  HPLC Assay Conv: 70%
Substrate DDPFQQ (SEQ ID NO: 126), 1 mM Peptide, 1 uM enzyme, 10 mM Mg(OAc)2, 50 mM MOPS pH 8, 60 mM KOAc, RT/0.5 hr
  HPLC Assay Conv: 0%
Substrate EEPFQQ (SEQ ID NO: 128), 1 mM Peptide, 1 uM enzyme, 10 mM Mg(OAc)2, 50 mM MOPS pH 8, 60 mM KOAc, RT/0.5 hr
  HPLC Assay Conv: 0%
Substrate FFPFFP{LYSN3}NH2 (SEQ ID NO: 94), 1 mM peptide, 2 mM enzyme, 2.5 mM ZnCl2, 25 mM Tris pH 8.0, 30° C./1 hr
  HPLC Assay Conv: 100%
Substrate FFPFQQ (SEQ ID NO: 124), 1 mM Peptide, 1 μM enzyme, 10 mM Mg(OAc)2, 50 mM MOPS pH 8, 60 mM KOAc, RT/0.5 hr
  HPLC Assay Conv: 100%
Substrate GGPFQQ (SEQ ID NO: 152), 1 mM Peptide, 1 μM enzyme, 10 mM Mg(OAc)2, 50 mM MOPS pH 8, 60 mM KOAc, RT/0.5 hr
  HPLC Assay Conv: 8%
Substrate HHPFQQ (SEQ ID NO: 154), 1 mM Peptide, 1 μM enzyme, 10 mM Mg(OAc)2, 50 mM MOPS pH 8, 60 mM KOAc, RT/0.5 hr
  HPLC Assay Conv: 12%
Substrate IIPFQQ (SEQ ID NO: 136), 1 mM Peptide, 1 μM enzyme, 10 mM Mg(OAc)2, 50 mM MOPS pH 8, 60 mM KOAc, RT/0.5 hr
  HPLC Assay Conv: 100%
Substrate KKMKKM{LYSN3}NH2 (SEQ ID NO: 89), 1 mM peptide, 2 mM enzyme, 2.5 mM ZnCl2, 25 mM Tris pH 8.0, 30° C./1 hr
  HPLC Assay Conv: 100%
Substrate KKPFQQ (SEQ ID NO: 120), 1 mM Peptide, 1 μM enzyme, 10 mM Mg(OAc)2, 50 mM MOPS pH 8, 60 mM KOAc, RT/0.5 hr
  HPLC Assay Conv: 32%
Substrate KKPKKP{LYSN3}NH2 (SEQ ID NO: 100), 1 mM peptide, 2 mM enzyme, 2.5 mM ZnCl2, 25 mM Tris pH 8.0, 30° C./1 hr
  HPLC Assay Conv: 100%
Substrate LLPFQQ (SEQ ID NO: 138), 1 mM Peptide, 1 μM enzyme, 10 mM Mg(OAc)2, 50 mM MOPS pH 8, 60 mM KOAc, RT/0.5 hr
  HPLC Assay Conv: 100%
Substrate MMPFQQ (SEQ ID NO: 148), 1 mM Peptide, 1 μM enzyme, 10 mM Mg(OAc)2, 50 mM MOPS pH 8, 60 mM KOAc, RT/0.5 hr
  HPLC Assay Conv: 100%
Substrate NNPFQQ (SEQ ID NO: 130), 1 mM Peptide, 1 μM enzyme, 10 mM Mg(OAc)2, 50 mM MOPS pH 8, 60 mM KOAc, RT/0.5 hr
  HPLC Assay Conv: 15%
Substrate PPPFQQ (SEQ ID NO: 150), 1 mM Peptide, 1 μM enzyme, 10 mM Mg(OAc)2, 50 mM MOPS pH 8, 60 mM KOAc, RT/0.5 hr
  HPLC Assay Conv: 0%
Substrate QP5-Atto649N ([…]{LYSN3}NH2) (SEQ ID NO: 106), 37 μM Peptide, 8 μM Enzyme, 2.5 mM ZnCl2, 25 mM Tris pH 8.0, 37° C./0.5 hr
  HPLC Assay Conv: 100%
Substrate QP15 […]{LYSN3}NH2 (SEQ ID NO: 107), 1200 μM Peptide, 0.008 μM enzyme, 10 mM Mg(OAc)2, 50 mM MOPS pH 5.5, RT/0.5 hr
  HPLC Assay Conv: 1.40%
Substrate QP15 […]{LYSN3}NH2 (SEQ ID NO: 107), 1200 μM Peptide, 0.008 μM enzyme, 10 mM Mg(OAc)2, 50 mM MOPS pH 6.5, RT/0.5 hr
  HPLC Assay Conv: 56%
Substrate QQPFQQ (SEQ ID NO: 132), 1 mM Peptide, 1 μM enzyme, 10 mM Mg(OAc)2, 50 mM MOPS pH 8, 60 mM KOAc, RT/0.5 hr
  HPLC Assay Conv: 66%
Substrate RRPFQQ (SEQ ID NO: 116), 1 mM Peptide, 1 μM enzyme, 10 mM Mg(OAc)2, 50 mM MOPS pH 8, 60 mM KOAc, RT/0.5 hr
  HPLC Assay Conv: 79%
Substrate RRPRRP{LYSN3}NH2 (SEQ ID NO: 96), 1 mM peptide, 2 mM enzyme, 2.5 mM ZnCl2, 25 mM Tris pH 8.0, 30° C./1 hr
  HPLC Assay Conv: 100%
Substrate SSPFQQ (SEQ ID NO: 140), 1 mM Peptide, 1 μM enzyme, 10 mM Mg(OAc)2, 50 mM MOPS pH 8, 60 mM KOAc, RT/0.5 hr
  HPLC Assay Conv: 48%
Substrate TTPFQQ (SEQ ID NO: 142), 1 mM Peptide, 1 μM enzyme, 10 mM Mg(OAc)2, 50 mM MOPS pH 8, 60 mM KOAc, RT/0.5 hr
  HPLC Assay Conv: 100%
Substrate VVPFQQ (SEQ ID NO: 134), 1 mM Peptide, 1 μM enzyme, 10 mM Mg(OAc)2, 50 mM MOPS pH 8, 60 mM KOAc, RT/0.5 hr
  HPLC Assay Conv: 100%
Substrate WWPFQQ (SEQ ID NO: 146), 1 mM Peptide, 1 μM enzyme, 10 mM Mg(OAc)2, 50 mM MOPS pH 8, 60 mM KOAc, RT/0.5 hr
  HPLC Assay Conv: 82%
Substrate YYMYYM{LYSN3}NH2 (SEQ ID NO: 103), 1 mM peptide, 2 mM enzyme, 2.5 mM ZnCl2, 25 mM Tris pH 8.0, 30° C./1 hr
  HPLC Assay Conv: >90%
Substrate YYPFQQ (SEQ ID NO: 122), 1 mM Peptide, 1 μM enzyme, 10 mM Mg(OAc)2, 50 mM MOPS pH 8, 60 mM KOAc, RT/0.5 hr
  HPLC Assay Conv: 56%
Substrate YYPYYP{LYSN3}NH2 (SEQ ID NO: 92), 1 mM peptide, 2 mM enzyme, 2.5 mM ZnCl2, 25 mM Tris pH 8.0, 30° C./1 hr
  HPLC Assay Conv: 50%

Source: patent publication US12618845B2, “Methods and compositions for protein sequencing” (Quantum-Si Incorporated, priority 2018, dated 2026)
